Here are results for 5 substances from patent US20150030560A1.

The target in test [1] is Detergent-soluble HLA-DR4 purified from Priess cells (DRB1*0401) (human).
Test [2] deals with Detergent-soluble HLA-DR1 purified from LG-2 cells (DRB1*0101) (human).
Test [3] concerns the target Detergent-soluble HLA-DR2 purified from MGAR cells (DRB1*1501) (human).

The term IC50 denotes the midpoint of a concentration-inhibition curve. The Kd is the constant that tells how readily two partners part at equilibrium. Turning to Copolymer 1 (peptide), the IC50 in test [1] turned out to be 10.8 µM; in test [2], 8.8 µM; in test [3], 10.1 µM. Besides, the dissociation constant (Kd) came out at 0.015 µM in test [1], 0.074 µM in test [2] and 0.082 µM in test [3].
For the substance “GTL terpolymer (SD-1697), poly[L-Tyr 0.162, L-Glu 0.259, L-Lys 0.579] (peptide)”, the IC50 was found to be 43 µM in test [1], 43 µM in test [2] and 25.4 µM in test [3]. Besides, the Kd turned out to be 0.008 µM in test [1] and 0.004 µM in test [2].
As for “GAL terpolymer (SD-1689), poly[L-Glu 0.153, L-Ala 0.479, L-Lys 0.365] (peptide)”, the IC50 in test [1], in test [2] and in test [3] was under 1000 µM each time. The Kd in test [1] came out at 0.003 µM; in test [3], 0.017 µM.
In turn, “TAL terpolymer (SD-1691), poly[L-Tyr 0.102, L-Ala 0.542, L-Lys 0.353] (peptide)” returned an IC50 in test [2] of 3.3 µM. In test [3], this substance showed a half-maximal inhibitory concentration (IC50) of 2.7 µM and a Kd of 0.017 µM.
“TGA terpolymer (SD-1690), poly[L-Tyr 0.136, L-Glu 0.21, L-Ala 0.648] (peptide)”: the IC50 is 1 µM in test [1], 1.3 µM in test [2] and 9.5 µM in test [3]. In addition, the Kd in test [1] came out at 0.008 µM; in test [2], 0.01 µM; in test [3], 0.008 µM.
